Reference: US11571484B2, “Compositions that target tumor-associated macrophages and methods of use therefor” (Sanford Burnham Prebys Medical Discovery Institute, priority 2017, dated 2023)
Ends that are not written are not given here. FAM = 5(6)-carboxyfluorescein; Ahx = NCCCCCC(=O)O

Legend:
[1] = molecular target: T1, recombinant mouse macrophage mannose receptor rmMMR/CD206 (Mus musculus, UniProt Q61830); assay: Fluorescence anisotropy assay with mouse recombinant CD206; type: binding; details: 50 nM FAM peptide, 1 μM protein, 25 °C
T1 construct: purchased R&D Systems 2535-MM-050
T1 sequence (Q61830 20-1456): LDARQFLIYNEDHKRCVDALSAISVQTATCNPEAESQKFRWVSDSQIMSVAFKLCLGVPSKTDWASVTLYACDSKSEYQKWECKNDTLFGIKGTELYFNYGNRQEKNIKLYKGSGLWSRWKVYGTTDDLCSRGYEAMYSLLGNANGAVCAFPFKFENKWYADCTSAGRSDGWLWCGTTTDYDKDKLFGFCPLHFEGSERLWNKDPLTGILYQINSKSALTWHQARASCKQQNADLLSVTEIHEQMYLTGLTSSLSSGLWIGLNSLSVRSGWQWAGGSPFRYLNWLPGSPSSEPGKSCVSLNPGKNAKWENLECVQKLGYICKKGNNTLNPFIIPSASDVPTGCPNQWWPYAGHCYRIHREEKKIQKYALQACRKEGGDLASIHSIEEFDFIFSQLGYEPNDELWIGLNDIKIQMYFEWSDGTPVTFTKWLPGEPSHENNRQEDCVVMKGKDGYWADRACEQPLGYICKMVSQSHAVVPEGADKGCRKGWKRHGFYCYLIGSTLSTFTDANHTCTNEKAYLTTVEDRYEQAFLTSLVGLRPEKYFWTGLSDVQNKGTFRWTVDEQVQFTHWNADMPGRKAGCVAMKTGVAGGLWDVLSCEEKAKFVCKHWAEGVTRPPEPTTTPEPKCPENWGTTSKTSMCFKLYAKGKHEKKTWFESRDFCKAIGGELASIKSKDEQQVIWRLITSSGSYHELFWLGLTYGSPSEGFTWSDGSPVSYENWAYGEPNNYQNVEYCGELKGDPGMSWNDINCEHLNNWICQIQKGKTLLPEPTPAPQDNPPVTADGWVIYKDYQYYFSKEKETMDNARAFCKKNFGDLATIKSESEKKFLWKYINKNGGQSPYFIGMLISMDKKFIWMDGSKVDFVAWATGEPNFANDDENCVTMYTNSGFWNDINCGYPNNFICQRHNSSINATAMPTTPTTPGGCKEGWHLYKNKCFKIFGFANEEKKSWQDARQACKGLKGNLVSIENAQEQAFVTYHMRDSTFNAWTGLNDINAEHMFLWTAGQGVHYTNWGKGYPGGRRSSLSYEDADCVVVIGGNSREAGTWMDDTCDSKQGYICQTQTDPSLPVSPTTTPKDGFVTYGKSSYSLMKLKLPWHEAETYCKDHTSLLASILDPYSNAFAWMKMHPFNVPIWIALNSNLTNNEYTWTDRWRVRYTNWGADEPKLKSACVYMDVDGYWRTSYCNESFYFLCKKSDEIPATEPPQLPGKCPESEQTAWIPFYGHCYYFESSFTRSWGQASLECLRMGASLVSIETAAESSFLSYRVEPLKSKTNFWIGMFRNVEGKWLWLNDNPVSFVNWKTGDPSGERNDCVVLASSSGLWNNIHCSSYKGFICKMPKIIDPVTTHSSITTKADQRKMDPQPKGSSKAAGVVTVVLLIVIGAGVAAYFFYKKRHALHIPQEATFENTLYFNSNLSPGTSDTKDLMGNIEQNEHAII
Description: The stocks of fluorescent ligands (FAM-UNO, FAM-CSPGAK and FAM-CPMTDNE) in mQ water were stored at −20° C. […], 150 mM NaCl, 1 mM CaCl2, 0.1% Pluronic F-127, pH 7.4) on the day of experiment. The concentration of fluorescent ligands was determined by absorbance of FAM (E495=75000 M^−1 cm^−1).
The recombinant mouse macrophage mannose receptor rmMMR/CD206 (R&D Systems, catalog number: 2535-MM-050) and recombinant mouse CD163 (R&D Systems, catalog number: 7435-CD-050) were reconstituted at 1 mg/ml in IB, aliquoted and stored at −20° C. To generate linearized version of cyclic FAM-UNO peptide, the peptide at 1 mM concentration was preincubated for 24 h at room temperature in a dark place with 3 mM DTT and diluted with IB 2×10^5 times before the FA assay. The control experiment with FAM-CPMTDNE peptide (FIG. 22) was performed to rule out the possibility of disulphide bond formation, which could affect the binding properties of linear peptides. Initially, the peptide was preincubated in DMSO for 4 days at room temperature to enhance the disulphide bond formation, and then diluted in IB buffer with 3 mM DTT, and the disappearance of preformed dimer was observed as a change in FA signal.
In all experiments, FA signal measurements were done under pseudo first-order conditions with 50 nM singly labelled FAM peptides and 1 μM proteins. […] Assays were carried out in kinetic mode in a total volume of 30 μl at 25° C. on the PHERAstar (BMG Labtech, Germany) microplate reader using an optical module with excitation and emission filters of 485 nm (slit 10 nm) and 520 nm (slit 10 nm), respectively. Dual emission detection mode allows simultaneous recording of intensities that are parallel (l) and perpendicular (1) to the plane of excitation light. […] The background fluorescence (receptor and buffer components in the absence of fluorescent ligand) was subtracted independently from all intensity channels. FA signals at time t after initiation of binding reaction was calculated as parameters r(t) from the equation: […]

MEMs in MCF-7 tumors = assay: Free peptide homing and immunofluorescence in the orthotopic MCF-7 breast tumor model; type: in vivo, mouse; details: 30 nmoles i.v., 2 h
Description: A, Thirty nmoles of FAM-UNO were injected intravenously in mice bearing MCF-7 tumors, 21 days after orthotopic inoculation of 5×10^6 cells. […] All images were taken with the same imaging conditions. Scale bar: 100 μm and 50 μm (blow up). […] The tumor tissue from panel A was analyzed by immunofluorescence using rabbit anti-FAM (green), rat anti-HLA ABC (red) and counterstained with DAPI (blue). Scale bar: 50 μm. C, MCF-7 tumors are leaky. Tumor sections were immunostained for endogenous mouse IgG and counterstained with DAPI using the same staining and imaging conditions as in FIG. 17. Scale bar: 100 μm. Representative images from n=3 mice.
Mice were used for homing studies two weeks later.

Substance | change in fluorescence anisotropy (interaction) with mouse recombinant CD206 [1] | accumulation in MEMs (MEMs in MCF-7 tumors) | targeting of tumor cells of human origin (HLA ABC+) (MEMs in MCF-7 tumors)
FAM-CSPGAK: FAM-labeled linear CSPGAK (SEQ ID NO: 6) (not fully specified; FAM label) | clear time-dependent increase of anisotropy | – | –
FAM-UNO: FAM-labeled UNO peptide CSPGAKVRC (SEQ ID NO: 1); 5(6)-carboxyfluorescein with 6-aminohexanoic acid spacer at the N-terminus ({FAM-Ahx}-CSPGAKVRC; cysteine pairing not given here) | did not cause a change in the fluorescence anisotropy | selectively accumulated in MEMs | did not target the tumor cells of human origin
